This is an account of results in article PMC11161652, “ASXLs binding to the PHD2/3 fingers of MLL4 provides a mechanism for the recruitment of BAP1 to active enhancers” (Nature Communications, 2024).

Where two headings read alike, the source gives them in different places. Ends that are not written are not given here.

One test has as its target T1, MLL4PHD2/3 (Homo sapiens, UniProt O14686).
T1 construct: MLL4 (aa 227-324); GST (N, cleaved yes); made in house; host or cells: E. coli BL21-CodonPlus
T1 sequence (O14686 227-324): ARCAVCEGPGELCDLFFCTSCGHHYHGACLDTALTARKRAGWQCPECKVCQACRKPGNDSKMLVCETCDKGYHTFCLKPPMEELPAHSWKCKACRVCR
As to the kind of experiment: NMR titration binding, WT MLL4PHD2/3. The settings on record: 0.1 mM protein; for binding in NMR titration (CSPs): 1H,15N HSQC, pH 6.8, 298 K, in words. On the procedure: (§1) All constructs were expressed in BL21-CodonPlus competent cells.
(§2) For NMR titration experiments, ^1H,^15N HSQC spectra of 0.1 mM uniformly ^15N-labeled WT or mutated MLL4PHD2/3, MLL3PHD2/3 or MLL3PHD4 were recorded while WT or mutated ASXL2 (aa 650-670, 650-664, 656-670) and ASXL3 (aa 1047-1067) peptides (synthesized by SynPeptide) or MLL3PHD2/3 were added stepwise. All experiments were carried out in 20 mM Tris buffer (pH 6.8), 150 mM NaCl, and 3 mM DTT, containing 7% D2O. The dissociation constants (Kds) were determined by a nonlinear least-squares analysis in GraphPad Prism using the equation:1 △δ=△δmaxL+P+Kd−L+P+Kd^2−4PL/2P where [L] is concentration of the peptide, [P] is concentration of the protein, Δδ is the observed chemical shift change, and Δδmax is the normalized chemical shift change at saturation. Normalized chemical shift changes were calculated using the equation Δδ=△δH^2+△sn/5^2 (2), where Δδ is the change in chemical shift in parts per million (ppm).

For a further test, the target named is T2, MLL3PHD2/3 (Homo sapiens, UniProt Q8NEZ4).
T2 construct: human MLL3 (aa 342-439); GST (N, cleaved yes); made in house; host or cells: E. coli BL21-CodonPlus
T2 sequence (Q8NEZ4 342-439): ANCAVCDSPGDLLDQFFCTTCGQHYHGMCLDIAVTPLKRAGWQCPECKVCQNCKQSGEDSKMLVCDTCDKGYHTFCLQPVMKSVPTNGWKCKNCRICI
The test is described as follows: NMR titration binding, WT MLL3PHD2/3. The settings on record: 0.1 mM protein. On the procedure: as §1, §2

Another test relates to GST-MLL3PHD2/3. As to the kind of experiment: GST pull-down, WT MLL3PHD2/3. The class given is binding, human. The settings on record: WT GST-MLL3PHD2/3; HEK293FT lysate, 3 h at 4 °C, western blot; n = 3. On the procedure: (§3) Pull-down assays were performed by mixing resin-bound GST-MLL3PHD2/3 and GST-MLL4PHD2/3 (wild type and mutants) with lysates of HEK293FT expressing Myc-ASXL1, Myc-ASXL2 or Myc-ASXL2ΔMBH. Pellets of HEK293FT cells transfected with the appropriate pDEST expression construct (15 μg/dish using polyethylenimine (PEI)) were lysed with 10 times their volume of lysis buffer (50 mM Tris pH 7.3, 100 mM NaCl, 1 mM DTT, 1 mM EDTA, 1 mM PMSF, 0.1% Tween20, 1/100 anti-protease (Sigma)) and sonicated with a probe sonicator (Branson digital sonifier 450) calibrated at 40% amplitude for 3–4 rounds during 40–60 s. Lysates were then centrifuged in a Sorvall Lynx 6000 (rotor: F21-8x50Y) at 15,000 RPM during 20 min. Approximatively 9 μg of purified GST-fusion proteins bound to GSH resin (Sigma, G4510) were used for each condition. Final volume of GSH resin was adjusted to 30 μl per condition with empty GSH beads and incubated with 1.5 mL of HEK293FT lysate expressing Myc-ASXL1, Myc-ASXL2 or Myc-ASXL2ΔMBH for 3 h at 4 °C on a rotative system. A fraction of the reaction mixture (80 μL) was collected as the input. After the incubation, beads were washed 5 times and mixed with 100 μL of Laemmli buffer. Samples were loaded on 8% or 15% SDS-acrylamide gels and processed for western blotting.
Background: Immunoblotting shows a protein as a band on a membrane.

A further test concerns GST-MLL4PHD2/3. The test is described as follows: GST pull-down, WT MLL4PHD2/3. The class given is binding, human. The settings on record: WT GST-MLL4PHD2/3; HEK293FT lysate, 3 h at 4 °C, western blot; n = 3. On the procedure: as §3
Test [1] deals with MLL4PHD2/3 or MLL3PHD2/3 mutants. As to the kind of experiment: GST pull-down, mutated MLL3/4PHD2/3. The class given is binding, human. The settings on record: mutated GST-MLL3/4PHD2/3; HEK293FT lysate, 3 h at 4 °C, western blot; n = 3. On the procedure:
as §3

Test [2] deals with T3, PHD2 and PHD3 fingers of human MLL3 (aa 342-439) (human, UniProt Q8NEZ4 342-439).
T3 construct: PHD2 and PHD3 fingers of human MLL3 (KMT2C), aa 342-439; 15N-labelled for NMR titrations; also used unlabelled as the titrant against MLL3 PHD4; also called MLL3_(PHD2/3); MLL3 PHD2/3; source: E. coli BL21-CodonPlus, purified (glutathione agarose, PreScission cleavage; unlabeled proteins also SEC)
T3 sequence (looked up): T2 sequence (Q8NEZ4 342-439)
The test is described as follows: other fluorescence titration; tryptophan fluorescence, 25 °C; 1.0 µM MLL4 PHD2/3 or MLL3 PHD2/3 with increasing peptide; excitation 295 nm; 20 mM Tris pH 7.2, 150 mM NaCl, 1 mM TCEP, 0.02% Tween20; average of three measurements. The settings on record: both partners purified.

The target of test [3] is T4, PHD2 and PHD3 fingers of human MLL4 (aa 227-324) (human, UniProt O14686 227-324).
T4 construct: PHD2 and PHD3 fingers of human MLL4 (KMT2D), aa 227-324; also called MLL4_(PHD2/3); MLL4 PHD2/3; source: E. coli BL21-CodonPlus, purified (glutathione agarose, PreScission cleavage; unlabeled proteins also SEC)
T4 sequence (looked up): T1 sequence (O14686 227-324)
Described as above. As to conditions: both partners purified.

In test [4] the target is T5, PHD2 and PHD3 fingers of human MLL3 (aa 342-439) (human, UniProt Q8NEZ4 342-439).
T5 chain: T2 sequence (Q8NEZ4 342-439)

For test [5], the target named is T4, PHD2 and PHD3 fingers of human MLL4 (aa …). As to the kind of experiment: not stated; fluorescence spectroscopy or NMR: the legends of Fig. 3c and Fig. 4b say that values marked (a) are from NMR and the others from fluorescence; the text does not tell which for these pairs. As to conditions: both partners purified.
Where [6] appears, read: NMR, 1H,15N HSQC titration, 20 mM Tris pH 6.8, 150 mM NaCl, 298 K.

In general, Kd refers to the constant that tells how readily two partners part at equilibrium. Low readings indicate a tighter complex, high ones a looser complex. On to “ASXL2 K661E: K661E mutated ASXL2 peptide (residues 650-670) (NRTGARTLADIEAKAQLVKAQ)”, for which the “binding in NMR titration (CSPs)” value in the test with MLL4PHD2/3 is “abrogated binding”; with MLL3PHD2/3 (1H,15N HSQC, pH 6.8, 298 K, in words) it was “did not form the complex”. In addition, the dissociation constant Kd result in the test with MLL4PHD2/3 (setting [6]) and with MLL3PHD2/3 (setting [6]) was “no binding” each time.

Take “ASXL1 peptide: ASXL1 peptide; the ASXL1 region encompassing residues 607-627 (GWTGARTLADIKARALQVRGA)”: in the test with MLL4PHD2/3, the “binding in NMR titration (CSPs)” value is recorded as “large CSPs, confirming formation of the complex”.

For the molecule RNTGARTLADIKARAQQARAQ [ASXL3 1047-1067], on MLL4PHD2/3, the “binding in NMR titration (CSPs)” value was “large CSPs, confirming formation of the complex”.

As to “full-length ASXL1: full-length ASXL1 expressed in HEK293FT cells”, the association in pull-down result with GST-MLL3PHD2/3 is on record as “detected”; in the test with GST-MLL4PHD2/3 it was “detected”; in test [1] it was “not with the MLL4PHD2/3 or MLL3PHD2/3 mutants”.

B1: ASXL2 peptide, residues 656-670 (peptide, UniProt Q76L83 656-670, looked up)
peptide: TLADIKAKAQLVKAQ
notes: ASXL2, residues 656-670; also called ASXL2_(656-670); ASXL2 (aa 656-670); source: synthetic peptide (SynPeptide)
As to B1, the Kd amounted to 133 µM in test [2] and 700 µM in [3].

B2: ASXL3 peptide (aa 1047-1067) (peptide, UniProt Q9C0F0 1047-1067, looked up)
peptide: RNTGARTLADIKARAQQARAQ
notes: ASXL3, residues 1047-1067; also called ASXL3 (aa 1047-1067); source: synthetic peptide (SynPeptide)
B2: the values for the Kd in test [2] and in [3] were 0.9 µM and 1.4 µM, respectively.

B3: ASXL2 peptide (aa 650-670) I660E (peptide, UniProt Q76L83 650-670, looked up)
peptide: NRTGARTLADEKAKAQLVKAQ
notes: ASXL2, residues 650-670; also called I660E mutant of ASXL2; source: synthetic peptide (SynPeptide)
On to B3, for which the Kd in [4] was 84 µM; in test [5] it was 1100 µM. For the same molecule, the binding result in test [2] is given as “binds”.

B4: ASXL2 peptide, residues 650-664 (peptide, UniProt Q76L83 650-664, looked up)
peptide: NRTGARTLADIKAKA
notes: ASXL2, residues 650-664; also called ASXL2_(650-664); ASXL2 (aa 650-664); source: synthetic peptide (SynPeptide)
Take B4: the values for the Kd in test [2] and in test [3] were 28 µM and 98 µM, respectively.
